Reference: US20090149339A1 (published 2009)
Ends that are not written are not given here. * marks the point of attachment. Biotin = O=C1N[C@H]2[C@H](CS[C@H]2CCCCC(=O)*)N1

Columns and labels:
[1] = biological target: T1, GST-41.8 kD PDZ domain fusion protein (hypothetical 41.8 kD protein AA4-85; PDZ domain 1 of 1) (UniProt P08515 1-218 = GST); assay: A assay
T1 construct: also called hypoth

[2] = biological target: T2, GST-PSD95 PDZ domain fusion protein (human post-synaptic density protein 95 AA387-724; PDZ domains 1-3 of 3) (human, UniProt P08515 1-218 = GST); assay: A assay
T2 sequence (P08515 1-218, tags or fused parts left off): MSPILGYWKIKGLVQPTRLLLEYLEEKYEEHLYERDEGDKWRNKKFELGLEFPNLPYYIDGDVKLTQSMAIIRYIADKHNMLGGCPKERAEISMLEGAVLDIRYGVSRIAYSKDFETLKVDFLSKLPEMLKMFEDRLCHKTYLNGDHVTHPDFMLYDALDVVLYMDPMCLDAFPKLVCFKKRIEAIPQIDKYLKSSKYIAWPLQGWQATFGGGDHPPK

[3] = biological target: T3, GST-CASK PDZ domain fusion protein (CASK AA495-584; PDZ domain 1 of 1) (mouse, UniProt P08515 1-218 = GST); assay: A/G assays
T3 construct: also called mCASK
T3 sequence (P08515 1-218, tags or fused parts left off): as above

[4] = biological target: GST-LIM PDZ domain fusion protein (Human LIM protein AA29-112; PDZ domain 1 of 1) (human, UniProt P08515 1-218 = GST); assay: A/G assays
[5] = biological target: GST-LIMK2 PDZ domain fusion protein (human LIM domain kinase 2 AA185-275; PDZ domain 1 of 1) (human, UniProt P08515 1-218 = GST); assay: A/G assays
Sequence of GST-LIMK2 PDZ domain fusion protein (human LIM domain kinase 2 AA185-275; PDZ domain 1 of 1) (P08515 1-218, tags or fused parts left off): as above

[6] = biological target: T4, GST-MPP2 PDZ domain fusion protein (maguk p55 subfamily member 2 (DLG2) AA185-273; PDZ domain 1 of 1) (UniProt P08515 1-218 = GST); assay: A/G assays
T4 construct: also called MMP2
T4 sequence (P08515 1-218, tags or fused parts left off): as above

[7] = biological target: GST-NOS1 PDZ domain fusion protein (human neuronal nitric oxide synthase; PDZ domain 1 of 1) (human, UniProt P08515 1-218 = GST); assay: A/G assays
Sequence of GST-NOS1 PDZ domain fusion protein (human neuronal nitric oxide synthase; PDZ domain 1 of 1) (P08515 1-218, tags or fused parts left off): as above

[8] = biological target: GST-AF6 PDZ domain fusion protein (af-6 protein AA985-1077; PDZ domain 1 of 1) (UniProt P08515 1-218 = GST); assay: A/G assays
Sequence of GST-AF6 PDZ domain fusion protein (af-6 protein AA985-1077; PDZ domain 1 of 1) (P08515 1-218, tags or fused parts left off): as above

[9] = biological target: GST-PTN-4 PDZ domain fusion protein (protein-tyrosine phosphatase meg1 AA774-862; PDZ domain 1 of 1) (UniProt P08515 1-218 = GST); assay: A/G assays
Sequence of GST-PTN-4 PDZ domain fusion protein (protein-tyrosine phosphatase meg1 AA774-862; PDZ domain 1 of 1) (P08515 1-218, tags or fused parts left off): as above

[10] = biological target: GST-prIL16 PDZ domain fusion protein (putative interleukin 16 precursor AA170-383; PDZ domains 1-2 of 2) (UniProt P08515 1-218 = GST); assay: A/G assays
Sequence of GST-prIL16 PDZ domain fusion protein (putative interleukin 16 precursor AA170-383; PDZ domains 1-2 of 2) (P08515 1-218, tags or fused parts left off): as above

[11] = biological target: T5, GST-KIAA0559 PDZ domain fusion protein (KIAA0559 AA766-870; PDZ1 of 1) (UniProt P08515 1-218 = GST); assay: A/G assays
T5 construct: also called K559
T5 sequence (P08515 1-218, tags or fused parts left off): as above

[12] = biological target: GST-MPP1 PDZ domain fusion protein (55 Kd erythrocyte membrane protein AA101-186; PDZ domain 1 of 1) (UniProt P08515 1-218 = GST); assay: A/G assays
Sequence of GST-MPP1 PDZ domain fusion protein (55 Kd erythrocyte membrane protein AA101-186; PDZ domain 1 of 1) (P08515 1-218, tags or fused parts left off): as above

[13] = biological target: T6, GST-KIAA0316 PDZ domain fusion protein (KIAA0316 AA197-284; PDZ domain 1 of 1) (UniProt P08515 1-218 = GST); assay: A/G assays
T6 construct: also called K316
T6 sequence (P08515 1-218, tags or fused parts left off): as above

[14] = biological target: T7, GST-DVL1 PDZ domain fusion protein (human dishevelled segment polarity protein homolog AA248-340); PDZ domain … (human, UniProt P08515 1-218 = GST); assay: A/G assays
[15] = biological target: T8, GST-TAX40 PDZ domain fusion protein (human tax interaction protein 40 AA35-137; PDZ domain 1 of 1) (human, UniProt P08515 1-218 = GST); assay: A/G assays
T8 construct: also called TX 40
T8 sequence (P08515 1-218, tags or fused parts left off): as above

[16] = biological target: GST-TIAM1 PDZ domain fusion protein (T-lymphoma invasion and metastasis inducing protein 1 AA1001-1088); PDZ 1 … (UniProt P08515 1-218 = GST); assay: A/G assays
[17] = biological target: T9, GST-KIAA0303 PDZ domain fusion protein (KIAA0303 AA652-742; PDZ domain 1 of 1) (UniProt P08515 1-218 = GST); assay: A/G assays
T9 construct: also called K303
T9 sequence (P08515 1-218, tags or fused parts left off): as above

[18] = biological target: T10, GST-CBP PDZ domain fusion protein (Cytohesin binding protein HE AA85-175; PDZ domain 1 of 1) (UniProt P08515 1-218 = GST); assay: A/G assays
T10 construct: also called Prot

[19] = biological target: GST-MINT3 PDZ domain fusion protein (human MINT3 AA11-52; PDZ domain 1 of 1) (human, UniProt P08515 1-218 = GST); assay: A/G assays
Sequence of GST-MINT3 PDZ domain fusion protein (human MINT3 AA11-52; PDZ domain 1 of 1) (P08515 1-218, tags or fused parts left off): as above

[20] = biological target: T11, GST-TAX2 PDZ domain fusion protein (human tax interaction protein 2 AA54-140; PDZ domain 1 of 1) (human, UniProt P08515 1-218 = GST); assay: A/G assays
T11 construct: also called TX 2
T11 sequence (P08515 1-218, tags or fused parts left off): as above

[21] = biological target: T12, GST-TAX33 PDZ domain fusion protein (tax interaction protein 33 AA73-162; PDZ domain 1 of 1) (UniProt P08515 1-218 = GST); assay: A/G assays
T12 construct: also called TX33
T12 sequence (P08515 1-218, tags or fused parts left off): as above

[22] = biological target: T13, GST-SYN1a PDZ domain fusion protein (alpha1-syntrophin AA96-189; PDZ domain 1 of 1) (UniProt P08515 1-218 = GST); assay: A/G assays
T13 construct: also called SYN 1 alpha; SYNTR 1 alpha
T13 sequence (P08515 1-218, tags or fused parts left off): as above

[23] = biological target: T14, GST-TAX43 PDZ domain fusion protein (human tax interaction protein 43 AA15-85; PDZ domain 1 of 1) (human, UniProt P08515 1-218 = GST); assay: A/G assays
T14 construct: also called TX 43
T14 sequence (P08515 1-218, tags or fused parts left off): as above

[24] = biological target: T15, GST-NeDLG PDZ domain fusion protein (presynaptic protein sao102, neuroendocrine-dlg; PDZ domains 1-2 of 3) (UniProt P08515 1-218 = GST); assay: A and G assays
T15 construct: also called NeDLG1
T15 sequence (P08515 1-218, tags or fused parts left off): as above

[25] = biological target: T15, GST-NeDLG PDZ domain fusion protein …; assay: G assay
[26] = biological target: T13, GST-SYN1a PDZ domain fusion protein …; assay: G assay
[27] = biological target: T1, GST-41.8 kD PDZ domain fusion protein …; assay: A/G assays
[28] = biological target: T16, GST-RGS12 PDZ domain fusion protein (human regulator of G-protein signalling 12 AA35-103; PDZ domain 1 of 1) (human, UniProt P08515 1-218 = GST); assay: A/G assays
T16 construct: also called RSG12
T16 sequence (P08515 1-218, tags or fused parts left off): as above

[29] = biological target: T2, GST-PSD95 PDZ domain fusion protein …; assay: A and G assays
[30] = biological target: T16, GST-RGS12 PDZ domain fusion protein …; assay: A assay
[31] = biological target: T7, GST-DVL1 PDZ domain fusion protein …; assay: A assay
[32] = biological target: T1, GST-41.8 kD PDZ domain fusion protein …; assay: A/G assays; remark: listed apart in the source
[33] = biological target: T2, GST-PSD95 PDZ domain fusion protein …; assay: A/G assays
[34] = biological target: T15, GST-NeDLG PDZ domain fusion protein …; assay: A/G assays

T1 sequence (P08515 1-218, tags or fused parts left off): as above

Biotin-KDSRPSFVGSSSGHTSTTL [CDW128B (IL8RB) C-terminal PL peptide AA29.2L, biotinylated]: binds [1]; binds [2]; no binding [3]. Biotin-KDSRPSFVGSSSGHTSTTL [CDW128B (IL8RB) C-terminal PL peptide AA29.2L, biotinylated]: no binding [4]; no binding [5]; no binding [6]. Biotin-KDSRPSFVGSSSGHTSTTL [CDW128B (IL8RB) C-terminal PL peptide AA29.2L, biotinylated]: no binding [7]; no binding [8]; no binding [9]. Biotin-KDSRPSFVGSSSGHTSTTL [CDW128B (IL8RB) C-terminal PL peptide AA29.2L, biotinylated]: no binding [10]; no binding [11]; no binding [12]. Biotin-KDSRPSFVGSSSGHTSTTL [CDW128B (IL8RB) C-terminal PL peptide AA29.2L, biotinylated]: no binding [13]; no binding [14]; no binding [15]. Biotin-KDSRPSFVGSSSGHTSTTL [CDW128B (IL8RB) C-terminal PL peptide AA29.2L, biotinylated]: no binding [16]; no binding [17]; no binding [18]. Biotin-KDSRPSFVGSSSGHTSTTL [CDW128B (IL8RB) C-terminal PL peptide AA29.2L, biotinylated]: no binding [19]; no binding [20]; no binding [21]. Biotin-KDSRPSFVGSSSGHTSTTL [CDW128B (IL8RB) C-terminal PL peptide AA29.2L, biotinylated]: no binding [22]; no binding [23]; binds [24].

Biotin-LASKSAEEGKQIPDSLSTDL [DOCK2 C-terminal PL peptide AA40L, biotinylated]: binds [25]; binds [26]; no binding [3]. Biotin-LASKSAEEGKQIPDSLSTDL [DOCK2 C-terminal PL peptide AA40L, biotinylated]: no binding [4]; no binding [5]; no binding [6]. Biotin-LASKSAEEGKQIPDSLSTDL [DOCK2 C-terminal PL peptide AA40L, biotinylated]: no binding [7]; no binding [8]; no binding [9]. Biotin-LASKSAEEGKQIPDSLSTDL [DOCK2 C-terminal PL peptide AA40L, biotinylated]: no binding [10]; no binding [27]; no binding [11]. Biotin-LASKSAEEGKQIPDSLSTDL [DOCK2 C-terminal PL peptide AA40L, biotinylated]: no binding [12]; no binding [28]; no binding [13]. Biotin-LASKSAEEGKQIPDSLSTDL [DOCK2 C-terminal PL peptide AA40L, biotinylated]: no binding [14]; no binding [15]; no binding [16]. Biotin-LASKSAEEGKQIPDSLSTDL [DOCK2 C-terminal PL peptide AA40L, biotinylated]: no binding [17]; no binding [18]; no binding [19]. Biotin-LASKSAEEGKQIPDSLSTDL [DOCK2 C-terminal PL peptide AA40L, biotinylated]: no binding [20]; no binding [21]; no binding [23]. Biotin-LASKSAEEGKQIPDSLSTDL [DOCK2 C-terminal PL peptide AA40L, biotinylated]: binds [29].

Biotin-TTNNNPNSAVNIKKIFTDV [KV1.3 C-terminal PL peptide AA33L, biotinylated]: binds [1]; binds [30]; binds [31]. Biotin-TTNNNPNSAVNIKKIFTDV [KV1.3 C-terminal PL peptide AA33L, biotinylated]: no binding [3]; no binding [4]; no binding [5]. Biotin-TTNNNPNSAVNIKKIFTDV [KV1.3 C-terminal PL peptide AA33L, biotinylated]: no binding [6]; no binding [7]; no binding [8]. Biotin-TTNNNPNSAVNIKKIFTDV [KV1.3 C-terminal PL peptide AA33L, biotinylated]: no binding [9]; no binding [10]; no binding [11]. Biotin-TTNNNPNSAVNIKKIFTDV [KV1.3 C-terminal PL peptide AA33L, biotinylated]: no binding [12]; no binding [13]; no binding [15]. Biotin-TTNNNPNSAVNIKKIFTDV [KV1.3 C-terminal PL peptide AA33L, biotinylated]: no binding [16]; no binding [17]; no binding [18]. Biotin-TTNNNPNSAVNIKKIFTDV [KV1.3 C-terminal PL peptide AA33L, biotinylated]: no binding [19]; no binding [20]; no binding [21]. Biotin-TTNNNPNSAVNIKKIFTDV [KV1.3 C-terminal PL peptide AA33L, biotinylated]: no binding [22]; no binding [23]; binds [29]. Biotin-TTNNNPNSAVNIKKIFTDV [KV1.3 C-terminal PL peptide AA33L, biotinylated]: binds [24].

Biotin-DLGNMEENKKLEENNHKTEA [CD166 (CD6L) C-terminal PL peptide AA20L, biotinylated]: no binding [32]; no binding [3]; no binding [4]. Biotin-DLGNMEENKKLEENNHKTEA [CD166 (CD6L) C-terminal PL peptide AA20L, biotinylated]: no binding [5]; no binding [6]; no binding [7]. Biotin-DLGNMEENKKLEENNHKTEA [CD166 (CD6L) C-terminal PL peptide AA20L, biotinylated]: no binding [8]; no binding [9]; no binding [10]. Biotin-DLGNMEENKKLEENNHKTEA [CD166 (CD6L) C-terminal PL peptide AA20L, biotinylated]: no binding [11]; no binding [12]; no binding [28]. Biotin-DLGNMEENKKLEENNHKTEA [CD166 (CD6L) C-terminal PL peptide AA20L, biotinylated]: no binding [13]; no binding [14]; no binding [15]. Biotin-DLGNMEENKKLEENNHKTEA [CD166 (CD6L) C-terminal PL peptide AA20L, biotinylated]: no binding [16]; no binding [17]; no binding [18]. Biotin-DLGNMEENKKLEENNHKTEA [CD166 (CD6L) C-terminal PL peptide AA20L, biotinylated]: no binding [19]; no binding [20]; no binding [33]. Biotin-DLGNMEENKKLEENNHKTEA [CD166 (CD6L) C-terminal PL peptide AA20L, biotinylated]: no binding [34]; no binding [21]; no binding [22]. Biotin-DLGNMEENKKLEENNHKTEA [CD166 (CD6L) C-terminal PL peptide AA20L, biotinylated]: no binding [23].
